Results on two molecules are retold here after paper PMC9929644 (The EMBO Journal, 2023).

Assay [1] has as its target GST‐LMO4 (UniProt P61968). Nature of the assay: ITC. On the technique in general: Isothermal titration calorimetry measures the heat released or taken up as one component is titrated into another.
Assay [2] has as its target T1, MBP‐Jacob‐262‐532 (UniProt Q9EPI6 262-532).
T1 sequence (looked up): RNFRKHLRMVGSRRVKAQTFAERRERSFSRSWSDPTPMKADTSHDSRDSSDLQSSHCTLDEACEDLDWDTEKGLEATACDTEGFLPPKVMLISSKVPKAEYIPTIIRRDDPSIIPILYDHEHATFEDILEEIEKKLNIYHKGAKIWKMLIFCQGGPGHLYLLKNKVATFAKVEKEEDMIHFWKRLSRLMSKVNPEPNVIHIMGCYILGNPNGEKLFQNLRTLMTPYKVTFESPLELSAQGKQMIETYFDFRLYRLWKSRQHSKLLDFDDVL
The experiment in a line: pull-down.

Jacob (protein of the ITC experiment), sequence (Q9EPI6 whole entry): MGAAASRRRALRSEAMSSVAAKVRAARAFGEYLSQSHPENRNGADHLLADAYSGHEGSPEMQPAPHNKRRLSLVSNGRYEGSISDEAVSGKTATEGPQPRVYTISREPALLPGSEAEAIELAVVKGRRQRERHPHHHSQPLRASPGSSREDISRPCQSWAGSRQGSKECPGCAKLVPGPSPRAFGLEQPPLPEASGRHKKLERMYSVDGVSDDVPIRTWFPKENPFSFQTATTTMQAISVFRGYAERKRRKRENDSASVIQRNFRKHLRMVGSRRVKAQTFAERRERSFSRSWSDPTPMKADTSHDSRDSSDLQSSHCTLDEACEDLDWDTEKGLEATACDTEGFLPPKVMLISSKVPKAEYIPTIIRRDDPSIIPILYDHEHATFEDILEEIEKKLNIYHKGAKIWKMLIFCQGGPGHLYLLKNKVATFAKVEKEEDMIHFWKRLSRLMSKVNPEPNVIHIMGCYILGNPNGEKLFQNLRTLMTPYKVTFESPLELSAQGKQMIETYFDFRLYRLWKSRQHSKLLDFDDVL

Molecule “Jacob (protein of the ITC experiment) (from UniProt Q9EPI6 1-532) (natural protein)” came in with a Kd in assay [1] of 370 nM. On to REAARECRRKKKEYVKCLENRVAVLENQNKTLIEELKALKDLYCHKSD (domain or fragment, UniProt P15337-1 294-341, looked up) [bZIP domain of CREB (His‐SUMO‐CREB‐294‐341)], for which the binding result in assay [2] is reported as “binds”.

The Kd is the constant that tells how readily two partners part at equilibrium. A higher Kd goes with weaker binding.
